Assay results taken from patent US20160264649A1.

Key:
Experiment in all cases: cell-based or functional assay
[1] = biological target: HIV-1 92RW008 Env (HIV-1)
[2] = biological target: HIV-1 92TH021 Env (HIV-1)
[3] = biological target: HIV-1 92UG031 Env (HIV-1)
[4] = biological target: HIV-1 92UG037 Env (HIV-1)
[5] = biological target: HIV-1 92WR009 Env (HIV-1)
[6] = biological target: HIV-1 92WR020 Env (HIV-1)
[7] = biological target: HIV-1 92WR021 Env (HIV-1)
[8] = biological target: HIV-1 92WR024 Env (HIV-1)
[9] = biological target: HIV-1 92WR026 Env (HIV-1)
[10] = biological target: HIV-1 93UG077 Env (HIV-1)
[11] = biological target: HIV-1 93WR029 Env (HIV-1)
[12] = biological target: HIV-1 94KE105 Env (HIV-1)
[13] = biological target: HIV-1 94UG103 Env (HIV-1)
[14] = biological target: HIV-1 CMU02 Env (HIV-1)
[15] = biological target: HIV-1 Env of isolate MG RM-C-019 (subtype C) (HIV-1)
[16] = biological target: HIV-1 Env of isolate MG RM-C-020 (subtype C) (HIV-1)
[17] = biological target: HIV-1 Env of isolate MG RM-C-022 (subtype C) (HIV-1)
[18] = biological target: HIV-1 Env of isolate MG RM-C-023 (subtype C) (HIV-1)
[19] = biological target: HIV-1 Env of isolate MG RM-C-024 (subtype C) (HIV-1)
[20] = biological target: HIV-1 Env of isolate MG RM-C-025 (subtype C) (HIV-1)
[21] = biological target: HIV-1 Env of isolate MG RM-C-026 (subtype C) (HIV-1)
[22] = biological target: HIV-1 Env of isolate MG RM-C-027 (subtype C) (HIV-1)
[23] = biological target: HIV-1 Env of isolate MG RM-C-028 (subtype C) (HIV-1)
[24] = biological target: HIV-1 MGRM-A-001 Env (HIV-1)
[25] = biological target: HIV-1 MGRM-A-002 Env (HIV-1)
[26] = biological target: HIV-1 MGRM-A-003 Env (HIV-1)
[27] = biological target: HIV-1 MGRM-A-004 Env (HIV-1)
[28] = biological target: HIV-1 MGRM-A-005 Env (HIV-1)
[29] = biological target: HIV-1 MGRM-A-006 Env (HIV-1)
[30] = biological target: HIV-1 MGRM-A-007 Env (HIV-1)
[31] = biological target: HIV-1 MGRM-A-008 Env (HIV-1)
[32] = biological target: HIV-1 MGRM-A-009 Env (HIV-1)
[33] = biological target: HIV-1 MGRM-A-010 Env (HIV-1)
[34] = biological target: HIV-1 MGRM-A-011 Env (HIV-1)
[35] = biological target: HIV-1 MGRM-A-012 Env (HIV-1)
[36] = biological target: HIV-1 MGRM-A-013 Env (HIV-1)
[37] = biological target: HIV-1 MGRM-A-014 Env (HIV-1)
[38] = biological target: HIV-1 MGRM-AE-001 Env (HIV-1)
[39] = biological target: HIV-1 MGRM-AE-002 Env (HIV-1)
[40] = biological target: HIV-1 MGRM-AE-003 Env (HIV-1)
[41] = biological target: HIV-1 MGRM-AE-004 Env (HIV-1)
[42] = biological target: HIV-1 MGRM-AE-005 Env (HIV-1)
[43] = biological target: HIV-1 MGRM-AE-006 Env (HIV-1)
[44] = biological target: HIV-1 MGRM-AE-007 Env (HIV-1)
[45] = biological target: HIV-1 MGRM-AE-008 Env (HIV-1)
[46] = biological target: HIV-1 MGRM-AG-001 Env (HIV-1)
[47] = biological target: HIV-1 MGRM-AG-002 Env (HIV-1)
[48] = biological target: HIV-1 MGRM-AG-003 Env (HIV-1)
[49] = biological target: HIV-1 MGRM-AG-005 Env (HIV-1)
[50] = biological target: HIV-1 MGRM-AG-006 Env (HIV-1)
[51] = biological target: HIV-1 MGRM-AG-008 Env (HIV-1)
[52] = biological target: HIV-1 MGRM-AG-009 Env (HIV-1)
[53] = biological target: HIV-1 MGRM-AG-011 Env (HIV-1)
[54] = biological target: HIV-1 MGRM-AG-012 Env (HIV-1)
[55] = biological target: HIV-1 MGRM-AG-013 Env (HIV-1)
[56] = biological target: HIV-1 VLGCA1 Env (HIV-1)

## 5114_A19 (PGT-128) (antibody)
[1]
  IC50: 0.003 µg/mL
[2]
  IC50: 0.01 µg/mL
[3]
  IC50: > 50 µg/mL
[4]
  IC50: 0.006 µg/mL
[5]
  IC50: 0.812 µg/mL
[6]
  IC50: 0.005 µg/mL
[7]
  IC50: 0.005 µg/mL
[8]
  IC50: > 50 µg/mL
[9]
  IC50: 0.01 µg/mL
[10]
  IC50: 0.014 µg/mL
[11]
  IC50: > 50 µg/mL
[12]
  IC50: 0.007 µg/mL
[13]
  IC50: 0.011 µg/mL
[14]
  IC50: > 50 µg/mL
[15]
  IC50: 0.01 µg/mL
[16]
  IC50: 5.85 µg/mL
[17]
  IC50: 0.042 µg/mL
[18]
  IC50: 0.026 µg/mL
[19]
  IC50: > 50 µg/mL
[20]
  IC50: 10.5 µg/mL
[21]
  IC50: 0.007 µg/mL
[22]
  IC50: 0.081 µg/mL
[23]
  IC50: 14.4 µg/mL
[24]
  IC50: > 50 µg/mL
[25]
  IC50: 0.149 µg/mL
[26]
  IC50: > 50 µg/mL
[27]
  IC50: > 50 µg/mL
[28]
  IC50: > 50 µg/mL
[29]
  IC50: > 50 µg/mL
[30]
  IC50: > 50 µg/mL
[31]
  IC50: > 50 µg/mL
[32]
  IC50: 0.005 µg/mL
[33]
  IC50: 0.005 µg/mL
[34]
  IC50: > 50 µg/mL
[35]
  IC50: 0.025 µg/mL
[36]
  IC50: 0.008 µg/mL
[37]
  IC50: 0.007 µg/mL
[38]
  IC50: 0.069 µg/mL
[39]
  IC50: 0.522 µg/mL
[40]
  IC50: 0.18 µg/mL
[41]
  IC50: > 50 µg/mL
[42]
  IC50: 0.032 µg/mL
[43]
  IC50: 0.044 µg/mL
[44]
  IC50: > 50 µg/mL
[45]
  IC50: > 50 µg/mL
[46]
  IC50: 4.73 µg/mL
[47]
  IC50: 4.99 µg/mL
[48]
  IC50: 34.8 µg/mL
[49]
  IC50: 0.037 µg/mL
[50]
  IC50: 0.009 µg/mL
[51]
  IC50: 0.668 µg/mL
[52]
  IC50: 0.021 µg/mL
[53]
  IC50: 3.93 µg/mL
[54]
  IC50: > 50 µg/mL
[55]
  IC50: 0.004 µg/mL
[56]
  IC50: 0.838 µg/mL

## 5136_H01 (PGT-131) (antibody)
[1]
  IC50: 1.01 µg/mL
[2]
  IC50: 0.014 µg/mL
[3]
  IC50: > 50 µg/mL
[4]
  IC50: 0.048 µg/mL
[5]
  IC50: 3.12 µg/mL
[6]
  IC50: 0.168 µg/mL
[7]
  IC50: 0.012 µg/mL
[8]
  IC50: > 50 µg/mL
[9]
  IC50: 0.041 µg/mL
[10]
  IC50: > 50 µg/mL
[11]
  IC50: > 50 µg/mL
[12]
  IC50: 0.013 µg/mL
[13]
  IC50: 1.1 µg/mL
[14]
  IC50: > 50 µg/mL
[15]
  IC50: 0.021 µg/mL
[16]
  IC50: > 50 µg/mL
[17]
  IC50: 0.78 µg/mL
[18]
  IC50: 0.143 µg/mL
[19]
  IC50: > 50 µg/mL
[20]
  IC50: > 50 µg/mL
[21]
  IC50: 1.67 µg/mL
[22]
  IC50: 0.065 µg/mL
[23]
  IC50: > 50 µg/mL
[24]
  IC50: > 50 µg/mL
[25]
  IC50: > 50 µg/mL
[26]
  IC50: > 50 µg/mL
[27]
  IC50: > 50 µg/mL
[28]
  IC50: > 50 µg/mL
[29]
  IC50: > 50 µg/mL
[30]
  IC50: > 50 µg/mL
[31]
  IC50: > 50 µg/mL
[32]
  IC50: 0.035 µg/mL
[33]
  IC50: 0.01 µg/mL
[34]
  IC50: > 50 µg/mL
[35]
  IC50: > 50 µg/mL
[36]
  IC50: > 50 µg/mL
[37]
  IC50: 15.4 µg/mL
[38]
  IC50: 4.8 µg/mL
[39]
  IC50: > 50 µg/mL
[40]
  IC50: 1.41 µg/mL
[41]
  IC50: > 50 µg/mL
[42]
  IC50: 0.017 µg/mL
[43]
  IC50: 0.026 µg/mL
[44]
  IC50: 0.026 µg/mL
[45]
  IC50: > 50 µg/mL
[46]
  IC50: > 50 µg/mL
[47]
  IC50: > 50 µg/mL
[48]
  IC50: 2.92 µg/mL
[49]
  IC50: 1.04 µg/mL
[50]
  IC50: 0.019 µg/mL
[51]
  IC50: > 50 µg/mL
[52]
  IC50: > 50 µg/mL
[53]
  IC50: > 50 µg/mL
[54]
  IC50: > 50 µg/mL
[55]
  IC50: 0.03 µg/mL
[56]
  IC50: > 50 µg/mL
